Measured values reported in patent US20230099801A1, “RESTORATION OF T CELL ACTIVITY VIA THE CD39/CD73 AXIS” (INNATE PHARMA, priority 2017, published 2023).
Entries after “also recorded” stand apart in the source; their conditions may differ.

Key:
[1] = biological target: T1, CHO cells expressing human CD39 (CHO-huCD39) (Homo sapiens, UniProt P49961); test: Antibody titration on CHO-huCD39 cells by flow cytometry; type: binding
T1 construct: expressed in transfected cells; host or cells: CHO cells
T1 sequence (P49961 1-510): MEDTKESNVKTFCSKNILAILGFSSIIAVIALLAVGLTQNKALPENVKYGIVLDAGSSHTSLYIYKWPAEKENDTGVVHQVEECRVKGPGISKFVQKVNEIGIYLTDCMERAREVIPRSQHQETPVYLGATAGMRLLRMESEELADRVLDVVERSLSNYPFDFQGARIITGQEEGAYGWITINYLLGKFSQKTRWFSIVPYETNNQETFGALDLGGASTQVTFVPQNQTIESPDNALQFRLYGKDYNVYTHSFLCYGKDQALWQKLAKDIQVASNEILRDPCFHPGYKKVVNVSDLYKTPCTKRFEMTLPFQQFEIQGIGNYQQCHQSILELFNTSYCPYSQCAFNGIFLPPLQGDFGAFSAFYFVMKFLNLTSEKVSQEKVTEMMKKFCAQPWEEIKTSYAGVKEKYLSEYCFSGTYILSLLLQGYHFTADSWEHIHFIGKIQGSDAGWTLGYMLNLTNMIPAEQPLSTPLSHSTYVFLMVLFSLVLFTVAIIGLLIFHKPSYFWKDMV
Method: (§1) Cells were incubated with various concentration of unlabeled anti-CD39 antibody from 30 μg/ml to 5×10^−4 μg/ml, for 30 minutes at 4° C. After washes, cells were incubated with Goat anti-mouse H+L labeled secondary antibody for 30 min at 4° C.

[2] = test system: CHO cells expressing cynomolgus CD39 (CHO-cyCD39); test: Antibody titration on CHO-cyCD39 cells by flow cytometry; type: binding, cynomolgus (Macaca fascicularis)
Method: as §1

[3] = test system: cynomolgus CD39 (CHO-cyCD39); test: Inhibition of cellular CD39 ATPase activity in CHO-cyCD39 cells; type: cell-based, cynomolgus (Macaca fascicularis)
Method: (§2) The inhibition of the CD39 enzymatic activity in CD39-expressing cells by antibodies was evaluated using Cell Titer Glo™ (Promega, reference G7571) that allows assessment of ATP hydrolysis through use of a reagent that generates a luminescent signal proportional to the amount of ATP present. The assay was thus designed to permit assessment of the inhibition of ATP hydrolyzed by CD39 in the cell culture supernatant. Briefly, 5×10^4 Ramos human lymphoma cells, 5×10^3 human CD39-, cynomolgus CD39—and mouse CD39-expressing CHO cells, were incubated 1 hour at 37° C. with anti-CD39 antibodies from 30 μg/ml to 5×10^−4 μg/ml. Cells were then incubated with 20 μM ATP for 1 additional hour at 37° C. Plates were centrifuged for 2 min at 400 g and 50 μl cell supernatant are transferred in a luminescence microplate (white wells). 50 μl CellTiter-Glo® Reagent (CTG) was added to the supernatant and emitted light was quantified after a 5 min incubation in the dark using a Enspire™ luminometer. Anti-CD39 antibody efficacy was determined by comparing emitted light in presence of antibody with ATP alone (maximal light emission) and ATP together with cells (minimal light emission).

human CD39 (CHO-huCD39) = biological target: T2, human CD39 (CHO-huCD39) (Homo sapiens, UniProt P49961); test: Inhibition of cellular CD39 ATPase activity in CHO-huCD39 cells; type: cell-based
T2 construct: expressed in transfected cells; host or cells: CHO cells
T2 sequence (P49961 1-510): T1 sequence (P49961 1-510)
Method: as §2

CD4 T cells = test: T cell proliferation assay in presence of added ATP, CD4 T cells; type: cell-based, human
Method: Peripheral blood from healthy donors was obtained from EFS, and mononuclear cells were isolated on a Ficoll gradient. Lymphocytes were further enriched on a 52% Percoll gradient by collection of the cell pellets and stained with a Cell Trace dye (Thermofisher) following the TDS provided by the manufacturer. […] Inhibition of T cell proliferation was achieved by addition of ATP (200 μM). T cell proliferation and ability of Abs to block immune suppressive effect of AMP were assessed by flow cytometry by quantifying the dye dilution in the proliferating T cell subset.
Percentage of proliferating T cells vs. anti-CD73 Ab concentration is plotted in graphs using GraphPad Prism software.

[4] = biological target: T3, CHO cells expressing murine CD39 (CHO-moCD39) (Mus musculus, UniProt P55772); test: Antibody titration on CHO-moCD39 cells by flow cytometry; type: binding
T3 construct: expressed in transfected cells; host or cells: CHO cells
T3 sequence (P55772 1-510): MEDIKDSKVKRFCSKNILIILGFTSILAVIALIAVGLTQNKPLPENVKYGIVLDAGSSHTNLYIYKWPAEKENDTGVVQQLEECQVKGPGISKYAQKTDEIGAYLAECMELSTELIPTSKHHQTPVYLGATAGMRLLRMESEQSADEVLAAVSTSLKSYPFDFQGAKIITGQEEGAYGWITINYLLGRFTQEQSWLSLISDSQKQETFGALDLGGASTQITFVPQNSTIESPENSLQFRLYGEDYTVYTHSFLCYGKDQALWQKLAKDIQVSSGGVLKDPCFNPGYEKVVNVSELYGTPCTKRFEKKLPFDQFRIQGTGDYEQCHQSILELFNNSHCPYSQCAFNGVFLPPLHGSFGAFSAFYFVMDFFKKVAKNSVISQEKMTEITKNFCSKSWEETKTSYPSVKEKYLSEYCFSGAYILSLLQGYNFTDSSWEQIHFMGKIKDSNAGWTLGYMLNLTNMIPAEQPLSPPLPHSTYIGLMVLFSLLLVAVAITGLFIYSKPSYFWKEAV
Method: as §1

[5] = biological target: T4, CD39 expressed by Ramos human lymphoma cells (Homo sapiens, UniProt P49961); test: Inhibition of cellular CD39 ATPase activity in Ramos cells; type: cell-based
T4 construct: host or cells: Ramos human lymphoma cells
T4 sequence (P49961 1-510): T1 sequence (P49961 1-510)
Method: as §2

B1: I-394: anti-CD39 antibody, VH SEQ ID NO: 6, VL SEQ ID NO: 7; heavy/light chains SEQ ID NOS: 52 and 53 (antibody)
heavy: EVQLQQSGPELVKPGASVKMSCKASGYTFTDYNMHWVKQSHGRTLEWIGYIVPLNGGSTFNQKFKGRATLTVNTSSRTAYMELRSLTSEDSAAYYCARGGTRFAYWGQGTLVTVSAASTKGPSVFPLAPSSKSTSGGTAALGCLVKDYFPEPVTVSWNSGALTSGVHTFPAVLQSSGLYSLSSVVTVPSSSLGTQTYICNVNHKPSNTKVDKRVEPKSCDKTHTCPPCPAPEAEGAPSVFLFPPKPKDTLMISRTPEVTCVVVDVSHEDPEVKFNWYVDGVEVHNAKTKPREEQYNSTYRVVSVLTVLHQDWLNGKEYKCKVSNKALPSSIEKTISKAKGQPREPQVYTLPPSREEMTKNQVSLTCLVKGFYPSDIAVEWESNGQPENNYKTTPPVLDSDGSFFLYSKLTVDKSRWQQGNVFSCSVMHEALHNHYTQKSLSLSPGK
light: DIVLTQSPASLAVSLGQRATISCRASESVDNFGVSFMYWFQQKPGQPPNLLIYGASNQGSGVPARFRGSGSGTDFSLNIHPMEADDTAMYFCQQTKEVPYTFGGGTKLEIKRTVAAPSVFIFPPSDEQLKSGTASVVCLLNNFYPREAKVQWKVDNALQSGNSQESVTEQDSKDSTYSLSSTLTLSKADYEKHKVYACEVTHQGLSSPVTKSFNRGEC
modifications: Chimeric homo sapiens mus musculus
With B1 the “binding to cells expressing human CD39” value [1] was “bound; also recorded: binds”, the “binding to cells expressing cynomolgus CD39” value [2] was “bound; also recorded: binds” and the “blocking CD39 enzymatic activity in cells expressing cynomolgus CD39” value [3] was “blocks; also recorded: highly potent”. For the same molecule, the “blocking CD39 enzymatic activity in cells expressing human CD39” value (human CD39 (CHO-huCD39)) was “blocks; also recorded: highly potent”, the “potentiation of anti-CD73 antibodies in restoring CD4 T cell proliferation” value (CD4 T cells; added ATP 200 μM, anti-CD39 at 0.01, 0.1, 1 μg/ml) was “strongly potentiation” and the “increase in potency of anti-CD73 antibodies” value (CD4 T cells; anti-CD39 antibody at 0.01 μg/ml) was “approximately 1 log”. For the same molecule, the “increase in potency of anti-CD73 antibodies” value (CD4 T cells; anti-CD39 antibody at 0.1 μg/ml) was “approximately 4 log”, the “enhancement of CD4 T cell proliferation, alone without anti-CD73” value (CD4 T cells; concentrations of 0.1 μg/ml and 1 μg/ml, added ATP) was “remarkable enhancement” and the “binding to cells expressing murine CD39” value [4] was “not to cells expressing murine CD39”. For the same molecule, the “blocking CD39 enzymatic activity in tumor (Ramos) cells” value [5] was “highly potent”, the “potency in Ramos cells compared to all other antibodies tested” value [5] was “greater potency” and the “maximum inhibition achieved, cellular CD39” value ([5]; Ramos cells) was 81.6%.
